Data from patent US20260069707A1, “COMBINATION THERAPY WITH ANTIBODY-DRUG CONJUGATES AND HYALURONIDASES” (HALOZYME, INC., priority 2024, published 2026).
Read-outs that look alike come from different tables or passages of the source. Marks after values point to notes of the source that are not given here.

Details: pig, in vivo
Experimental: Serum concentrations of total ADC, total antibody and Free Payload (unconjugated SN38) were determined in three separate assays conducted by PPD.
A 20.0-μL sample aliquot was diluted 10-fold. A portion of the diluted sample was taken and processed using an immunoaffinity approach. SMART Digest IA magnetic beads coated with anti-human Fc antibody were used to enrich Trodelvy from matrix. The bound proteins were subjected to “on-bead” proteolysis with trypsin. […] After trypsin digestion, the proteins were further subjected to acidic conditions to release SN-38 from the antibody, which was used for Total ADC quantitation. The following sequences in Table 49 were selected for monitoring in the assay:
VVSV was used for the quantitation of Total Antibody concentrations, DSTY was used for the quantitation of Intact Antibody (trouble shooting purposes only), and SN-38 was used for quantitating Total ADC concentrations.
A nominal unconjugated SN-38, concentration range of […] was chosen to quantitate samples. This assay requires a 50.0 μL porcine serum aliquot. Samples were kept frozen at −80° C. prior to analysis.
A matrix aliquot was fortified with internal standard. Analytes were isolated through protein precipitation. The eluate was evaporated under a nitrogen stream, and the remaining residue reconstituted. Final extracts were analyzed via HPLC MS/MS detection using positive ion electrospray.
Therefore, nominal time points were used for PK analyses. To estimate the serum concentration at time zero for intravenous (IV) data, a second-order polynomial regression was applied to the early serum time points (0.25, 1, and 2 hours). The intercept of the fitted polynomial curve was used as the extrapolated concentration at time zero. Skin concentration data (μg/mL) was normalized to total protein (mg/mL) per sample, resulting in values represented as μg/mg protein.
Pharmacokinetic parameters were calculated using noncompartmental methods performed in Microsoft Excel. The area under the concentration-time curve (AUC) was determined using the linear trapezoidal rule. For serum data, AUC0-7 was calculated using all available time points. For skin data, AUC1-7 was computed based on the three available time point measurements. The maximum observed concentration (Cmax) was identified directly from the dataset, and the time at which it occurred (Tmax) was recorded. All calculations were performed using Microsoft Excel.
Quantitation of total antibody, total ADC, and free payload (SN-38) from Trodelvy in porcine serum and tissue samples was performed via HPLC with MS/MS detection.

For Sacituzumab govitecan [Trodelvy], the “Relative difference in serum AUC0-7, Free Payload” value was 59%, the “Relative difference in serum AUC0-7, TAB” value was 76% and the “Relative difference in serum AUC0-7, TADC” value was 34%. The “Relative difference in serum Cmax, Free Payload” value was 38%, the “Relative difference in serum Cmax, TAB” value was 44% and the “Relative difference in serum Cmax, TADC” value was 13%. The “TADC/Free Payload, Tmax” value (50 mg) was 100%, the “TADC/TAB, Tmax” value (50 mg) was 33% and the “AUC0-7 of free payload” value (iv) was 0.1252 µg·days/mL. The “AUC0-7 of total ADC (TADC)” value (iv) was 41.44 µg·days/mL, the “AUC0-7 of total antibody (TAB)” value (iv) was 193.05 µg·days/mL and the “Cmax of free payload” value (iv) was 95.3 ng/mL. The “Cmax of total ADC (TADC)” value (iv) was 60550 ng/mL, the “Cmax of total antibody (TAB)” value (iv) was 57600 ng/mL and the “Tmax of free payload” value (iv) was 0 h. The “Tmax of total ADC (TADC)” value (iv) was 0 h, the “Tmax of total antibody (TAB)” value (iv) was 0 h and the “Total ADC Result” value (iv, 50 mg, 6 h) was 43.9 µg/mL. For the same substance, the “Total ADC Result” value (iv, 50 mg, 24 h) was 10 µg/mL, the “Total ADC Result” value (iv, 50 mg, 48 h) was 2.27 µg/mL and the “Total ADC Result” value (iv, 50 mg, 72 h) was 0.751 µg/mL. The “Total ADC Result” value (iv, 50 mg, 96 h) was less than 0.500 µg/mL, the “Total ADC Result” value (iv, 50 mg, 168 h) was 0.1 µg/mL and the “serum concentration of total ADC (TADC)” value (iv, 6 h) was 43.90 µg/mL. For the same substance, the “serum concentration of total ADC (TADC)” value (iv, 24 h) was 10.00 µg/mL, the “serum concentration of total ADC (TADC)” value (iv, 48 h) was 2.27 µg/mL and the “serum concentration of total ADC (TADC)” value (iv, 72 h) was 0.75 µg/mL. For the same substance, the “serum concentration of total ADC (TADC)” value (iv, 96 h) was <0.50^b μg/mL, the “serum concentration of total ADC (TADC)” value (iv, 168 h) was 0.10 µg/mL and the “Tmax of free payload” value (sc) was 24 h. The “serum concentration of total ADC (TADC)” value (sc, 0 h) was <0.10^b μg/mL, the “serum concentration of total ADC (TADC)” value (sc, 6 h) was 4.96 µg/mL and the “serum concentration of total ADC (TADC)” value (sc, 24 h) was 7.87 µg/mL. The “serum concentration of total ADC (TADC)” value (sc, 48 h) was 2.77 µg/mL, the “serum concentration of total ADC (TADC)” value (sc, 72 h) was 1.00 µg/mL and the “serum concentration of total ADC (TADC)” value (sc, 168 h) was 0.13 µg/mL.
